# Measurements: the DeepSol protein solubility set
# Test: soluble on expression in E. coli; label from the status in PepcDB or PDB records
row,Sequence,soluble on expression in E. coli
1,MIKDYLIETMNQDEVNLAITWAAQEGWNPGIHDATCFYQTDPHGFFAGKLNGKTIAIGSAVIYDDFFAFCGFYIVDKSYRDQGYGLELTKARLAYIGNRNAGIDGVINMLDKYARIGYQLAHNNARYCLNKTIKPISSEPHIVPLNQIDFSQLSSYDRLHFPAPRPQFLKCWINQPQSLALAYLIDGQIKGYGVIRTCHKGFKIGPLFAGTPEIAHQLFSNLVPYAKGQLIFLDIPENNPLAIELVSQYQMKKVFATARMYLKGEPPVKKESIYGITTFELG,not soluble
2,MRGSHHHHHHGSMEEYYMKLALDLAKQGEGQTESNPLVGAVVVKDGQIVGMGAHLKYGEAHAEVHAIHMAGAHAEGADIYVTLEPCSHYGKTPPCAELIINSGIKRVFVAMRDPNPLVAGRGISMMKEAGIEVREGILADQAERLNEKFLHFMRTGLPYVTLKAAASLDGKIATSTGDSKWITSEAARQDAQQYRKTHQSILVGVGTVKADNPSLTCRLPNVTKQPVRVILDTVLSIPEDAKVICDQIAPTWIFTTARADEEKKKRLSAFGVNIFTLETERIQIPDVLKILAEEGIMSVYVEGGSAVHGSFVKEGCFQEIIFYFAPKLIGGTHAPSLISGEGFQSMKDVPLLQFTDITQIGRDIKLTAKPTKE,soluble
3,MAMQFVMRLAREFRRADWRRMLSDMSATELGEWGDYFRMQSFSDVWMDAQFASLKALIVRMVSGSSDAAVADFSLLPEENGIPERTDEELMHLGEGISGGVRYGPDSQPGHLEHHHHHH,not soluble
4,MAGDPMGGAGLDNAQNVRNQTQNQTKPIHVSDRNEAFNRHNENEQFGYVRYQKEQFDGEQQKTPVMNREETAHMISSLTVQLPHIQDAATLVTDREALVVYKTDSKNRELTADQVKKTAASVIPRYYHVYISDNPNHMQSVENYSNLGSGSRDIREIMSGTIQEMKTSPQGSPVSENENANGETRQDMKIDRNDKNARLEHHHHHH,soluble
5,MSTLLPFPCEEKIPEGKYVLRTFEIKEGQVKEKLKDLNYEILASLSGVDLTFEKEEEWKKAKEILSDYVYTDRPESLEETLGRILKEKGFTLSTAESCTAGMLSSRIVNVPGSSEYFVGGFVVYSNDLKVKYLCVSEDTLKKYGAVSWQTCLEMTVGLKSNLGTDCGIAITGIAGPGGTLTKPQGLTYIGIFVKDKLTVIKRIFKGSRNENRFLSTQTAIFYLLKLLKR,soluble
6,MDKLKFGLVSLGCDKNRVDSEIILGSMNRDYEIVNDPREADVILVNTCGFIESAKQESINTILEMNKYKEKYNCKMLIATGCLTQRYGKELKELVPEIDAILGVNDYKSLDDAIEDFFNLGKKDIYCNYSDQSINEGKRIITTGEYSSYVRISEGCNNSCSYCIIPKIRGKYRSRQFENIIDEVRELSENGTKEVILIAQDTTRYGVDLYGRKRLHELLKEMSLIQGIEWIRIMYCYPEEITEELIEEIASNEKVCNYIDMPIQHISDNILKNMFRKTRKSEILDKVEKIRKKVPNIAIRTSLIVGFPGETEGDFNELCDFVKDANINNLGVFRYSREEGTKAALMPMQIADTVKEKREEDIMLIQQQVSKNLNAKKIGKVYKVIVEGFNGDYWYGRNFEMAPEIDGKVFFKSQSEIKVGSFINIKITENLEYDLIGVVYNEFSKLEHHHHHH,soluble
7,MPPPLPYDAMRSVWTDTAAPAMATVPLAGHADCDVAIVGAGITGLSAALHLAERGLRACVLEARDPGWGASGRNGGQVIPGIKHDPDEILARHGRERGEPLLHMVGTAADTVFDLIDRYGLDCHPVRRGWIQPAHSRQALDAVLARARQWRARGADVAELDAGDVARRLGTGRFLGGWIDRRAGSIQPLRYTRGLLRAALSLGAAVHGQSPVVALQREGSRWLVRCAQGASVRAEHVLIATNAYTDDLWPGLRRTVIAANSFIVATGPLDPALAPAILPGGEVASDSRRLLLYFRRDADRRFILGGRGRFADPVSDADWNHLVRGARLLYPQLADTPFVHRWSGRVALTRDFVPHVHQPSPNLRIVLGYNGRGVALATQMGNYLAREISGGEPLPYPVTPIAPIPLHGLKRLYIGLAVAYYGLCDRISLEHHHHHH,not soluble
8,MTDSDGKIVWETGYQVWGNTIQEKDHGGVEQNLRYQGQYLDRETGLHYNLHRYYDPDVGRFMVTDPIGLRGGLNLYSYAPNPLKYADPLGLTPCAVSNQKANRLLDSSETKVTVRSRSDAEQLFMDRYLGHNYKNMTGESGPSTKNLMEYLTENKTKAGSYHWDDIKDPSVTKPSYRVSGHGPGNPDGDLPHLQVHQHGGSVRHIFFPWETLEHHHHHH,not soluble
9,MGSDKIHHHHHHALGDQTLRKGQSHPDVKELQEALKKKGFFNYHTSTGYFGSITEDAVREFQMKHGLQVDGIAGPQTLNALLSQMNGNNGGQQTSSSAPNSTSNSTILRFGSSGQAVRDLQEKLKAKGYYNHSITGQYGRITTEAVREFQRANRLTVDGIAGPQTLAALTNQAPAASAPQYNAPVQQTTVLRQGSRGDAVRDLQRSLKDLGYYKSSIDGIFGAGTTTAVREFQRKMGLTVDGVAGPQTLNALHVNPTPNTSNGQSSSSGGNTASSGNRGATITNIVANASELIGTPYVWGGTTPRGFDCSGFVQYVFAQQGVSIPRTVAQMWNAGTSVSQPSVGDIVFFDTTGGPSHNGIYIGNNQFIHSGSSTGVTIASMNNSYWASRYLGAKRLY,not soluble
10,MNLGLCMADPDFGVYHHSSREESERLRYMARIMFTEAFGKIGIDQDADMNIIDVGCGLGFLTILCADYFKNSRITAIDTFSMGSLKDNSRERLIENLRLADVLDRVTVVEADITKPFNIEDKFDLAVSNLVFHNTGRQRFSVYRNVWNVLKCGSYFINADGFIRKNVASIFVDPFRADMSKISSMYEPEFAMEPKDQKRNAVWRYILVGLRSKCSDV,not soluble
11,MGHHHHHHSHMLTKFETKSARVKGLSFHPKRPWILTSLHNGVIQLWDYRMCTLIDKFDEHDGPVRGIDFHKQQPLFVSGGDDYKIKVWNYKLRRCLFTLLGHLDYIRTTFFHHEYPWILSASDDQTIRVWNWQSRTCVCVLTGHNHYVMCAQFHPTEDLVVSASLDQTVRVWDISGLRKKNLSPGAVESDVRGITGVDLFGTTDAVVKHVLEGHDRGVNWAAFHPTMPLIVSGADDRQVKIWRMNESKAWEVDTCRGHYNNVSCAVFHPRQELILSNSEDKSIRVWDMSKRTGVQTFRRDHDRFWVLAAHPNLNLFAAGHDGGMIVFKLERERPA,not soluble
12,MRLSMENIMNNPVIGVVMCRNRLKGHATQTLQEKYLNAIIHAGGLPIALPHALAEPSLLEQLLPKLDGIYLPSSPSNVQPHLYGENGDEPDADPGRDLLSMAIINAALERRIPIFAICRGLQELVVATGGSLHRKLCEQPELLEHREDPELPVEQQYAPSHEVQVEEGGLLSALLPECSNFWVNSLHGQGAKVVSPRLRVEARSPDGLVEAVSVINHPFALGVQWHPEWNSSEYALSRILFEGFITAWQHHIAEKQRL,not soluble
13,MQNMFDGVQLFVEVVEAGGFAKAGKRLSLTRSTIGKAIARLEMRLGVQLFQRTTRVQSLTEDGQQYYERCLRAIKELRAGEAMLEQGRREVAGRLHVSLPVLFGRQCVAPILRTYAREHPQLELELNFSDHHVDLIADGFDLAVRNGPLGNGTTLRARRLGNQRKILCASPTYLAARGKPHTLADLADHDLLTYCRNDRNMAWTLPDATGALVDIPITSRLRCNDLEVIADTAVDGMGVAWLPYWLLMERMQRGELIGIWGDRPSAVIECHVVWPAAQHVPLRSRLAINLLAAELPKYLEA,not soluble
14,MGSDKIHHHHHHMLLYIHGFNSSPFSDKAVITAKYMAQHHPSVIFHQPQLPNTPKAAMALLTTYVEAAIDAKEPLAYIGSSLGGYFASYLAETYGGKAVLVNPAVKPFELFDEFMGPQFNPYTEQHYLVVPEHKREVAEFNTAVIRNPDRFLVLLQTGDEVLDYREAVNKYHHCQLRIEAGGDHSFVGYESHLQTVSQFLHLP,not soluble
15,MKKRAGIWAALLLAAVMLAGCGNPADQKDSKAKQKTEVFPVTIDDASNQDVTIKKEPKKIVSLMPSNTEITYALGLGDKVVGVTTNDTYPKEVKKVEKVGDMNVNVEKVISLKPDLVLAHESSMSASADAIKQLKDAGITVLTVNDAQSFSEVYKSIEMIGEAGGAEKKADQLVKSMKSDLKDIQEKAKTISKDEEKSVFIEVSPDPDIYTTGKDTFMNEMLNVIHAKNAAADQTGWVQMTDEAIVKLNPDAIVTTDGVKAKAVEKRDGWSEINAVKHHRVYDVDPDLVTRSGPRLIEGVEELAESIYPDTFKE,not soluble
16,GSHMKVDITIKIQRDGQEIEIDIRVSTGKELERALQELEKALARAGARNVQITISAENDEQAKELLELIARLLQKLGYKDINVRVNGTEVKIEVRV,soluble
17,MTGDKEIITMTFKIWQIGLHLQQQEAAAVAIVRGAKECFLQRWWRLPLAHDIIKDGRIVDAQQLAKTLLPWSRELPQRHHIMLAFPASRTLQRSFPRPSMSLGEREQTAWLSGTMARELDMDPDSLRFDYSEDSLSPAYNVTAAQSKELATLLTLAERLRVHVSAITPDASALQRFLPFLPSHQQCLAWRDNEQWLWATRYSWGRKLAVGMTSAKELAAALSVDPDSVAICGEGGFDPWEAVSVRQPPLPPPGGDFAIALGLALGKAY,not soluble
18,MSDKRRYFGTDGVRGKVGQYPITPDFVLKLGWAAGRVLAKQGTRKVIIGKDTRISGYMLESALEAGLAAAGLKATFTGPMPTPAVAYLTQTFRAEAGIVISASHNPYYDNGIKFFSYEGTKLPDDIELAIEAELDKDIECVESAELGKASRMVDAAGRYIEFCKSTFPSKLSLSGLKLVVDCANGATYHIAPNVFRELGAEVIAMGVEPNGLNINDQVGATDVRALQKRVVEEHAHLGLAFDGDGDRIIMVDHLGNKVDGDQIAYIIARDALRRGELKGGVVGTLMTNLGMENGLKQLGIPFVRAAVGDRYVMEKLLEKGWKIGAENSGHVILLDKVTTGDAIVAGLQVLASVVGSEMTLHELAKGMTLYPQVLENVRFAGDNNPLEADAVKAAVSEVEAELGSKGRVLLRKSGTEPLIRVMVEGEDETLVKQSALKIAQAVKDNC,not soluble
19,MAEATDVVLVGGGIMSATLGVLLKELEPSWEITLIERLEDVALESSNAWNNAGTGHSALCELNYAPLGANGIIDPARALNIAEQFHVSRQFWATLVAEGKLEDNSFINAVPHMSLVMNEDHCSYLQKRYDAFKTQKLFENMEFSTDRNKISDWAPLMMRGRDENQPVAANYSAEGTDVDFGRLTRQMVKYLQGKGVKTEFNRHVEDIKRESDGAWVLKTADTRNPDGQLTLRTRFLFLGAGGGALTLLQKSGIPEGKGYGGFPVSGLFFRNSNPETAEQHNAKVYGQASVGAPPMSVPHLDTRNVDGKRHLMFGPYAGFRSNFLKQGSLMDLPLSIHMDNLYPMLCAGWANMPLTKYLLGELRKTKEERFASLLEYYPEANPDDWELITAGQRVQIIKKDSEKGGVLQFGTEIVAHADGSLAALLGASPGASTAVPLMIRLMHQCFPERAPSWEDRLKELVPGYGIKLNENPERADEIIAYTAKVLDI,not soluble
20,MAHHHHHHMSRCNVAACFFPQQYGCETECGSESLLRAVLGDNANRVDSVMNHCTPHCVAAAIARCIREGPNFPHHLHVIAGVGRFKEIMIACLIDMIPQPLFSIDVPLQCMMFASEEGSVVCKLFDSESMPSLLSTANDMEQIFLVSLRHERRMVTIVAVEQLSTSLVASMLGSVCSNIWVLLSGLHTTEREMSLLNEAMAIRDAVREFSSAVGAVSTELHVEEESSAHATPPVAVEVVHPSAPSLKGVEDNDTAVVVSSAEAETVSDTQSVARRLEESQCEVNQLRKKLEEAEDTIHRFRAAERRAEEEKKNLSLAESLAATTPVATSERAESLFCEGTGGLDSQNSKGNENWVGERTVVATQRELSAMQAKLSELQRCLVETSEGNLGRVREFQCRELEWQRELRRRTEERDVALQECERLRGATPCHGSQEKVFSRAVETPHAHQEQELDNLLSRIRSITAAHGNAAHSEFPMLFSSQRSAGGAGQPLSPRGDYRRFASLERYRS,not soluble
21,MGHHHHHHSHMTPGVVHASPPQSQRVPRQAPCEWAIRNIGQKPKEPNCHNCGTHIGLRSKTLRGTPNYLPIRQDTHPPSVIFCLAGVGVPGLPV,not soluble
